Data from paper PMC10033409, “Autoregulation of GPCR signalling through the third intracellular loop” (Nature, 2023).

Assays:
PTH1R–Gs peptide = assay: PTH1R-luciferase complementation reporter assay, Gs peptide; format: biochemical, human; conditions: PTH1R construct named by the receptor or protein whose sequence replaces ICL3 (WT = wild-type); X axis of Figure 5G
PTH1R–Gq peptide = assay: PTH1R-luciferase complementation reporter assay, Gq peptide; format: biochemical, human; conditions: PTH1R construct named by the receptor or protein whose sequence replaces ICL3 (WT = wild-type); Y axis of Figure 5G
Method: For PTH1R luciferase complementation reporter assays, cells were seeded the day prior to transfection at 25-30% confluence on 12-well plates. For each transfection, 0.5 μg DNA, 1.5 μl X-tremeGENE HP, and 100 μl Opti-MEM were combined, incubated for 15-20 min, and added to seeded wells. For each mutant, PTH1R-Gs peptide, PTH1R-Gq peptide and PTH1R-(no peptide) constructs were transfected in parallel. Spep and Qpep constructs were transfected 24 h prior to collection, and no-peptide constructs were transfected 18 h before collection. […] Media in each well was used to gently shear and resuspend the cells by pipetting. The cell mixture was centrifuged (3 min, 300g) and the media was aspirated. Cell pellet was resuspended in 1 ml PBS and centrifuged again as above. […] Cellular debris was removed by centrifugation (1,000g for 1 min). To collect additional vesicles, debris was resuspended in 0.3 ml PBS, briefly vortexed, and centrifuged again (1,000g for 1 min). The ~0.9 ml of combined decanted supernatant was centrifuged one additional time (1,000g for 2 min) to better remove cellular debris. […] Vesicle samples were collected in a 96-well clear bottom plate and assayed for TagRFP fluorescence (Tecan Spark, excitation 521 nm, emission 585 nm, gain 150). For each set of constructs for a given […] ([…] control), samples were diluted to the lowest TagRFP counts. […] The plate was tapped 2-3 times to mix, and the kinetic read was resumed. Moving averages were computed for each kinetic trace (3-point averages for 5 min equilibration, 8-point moving averages post-drug treatment). Each kinetic trace was normalized to the last point of the pre-drug equilibration. The maximum luminescence value that appeared stable over time was used for further analysis. Specific Spep and Qpep signals were calculated by subtracting the control value from the Spep value and the Qpep value for a given experiment.

[1] = system: β2AR–Gs peptide FRET sensor; assay: ∆FRET assay, β2AR–Gs peptide SPASM FRET sensor
[2] = target: β2AR ICL3 FRET sensor, β2AR(L258Azi/Y350Azi/∆351–413) (Homo sapiens, UniProt P07550, L258F/Y350F); assay: Time-correlated single photon counting FRET assay, β2AR ICL3 FRET sensor (AZDye488/AZDye546); conditions: in combination with isoproterenol
Method: Cell membranes were prepared following the procedure in ‘Crude cell membrane extracts’ through the first ultracentrifugation step (135,000g, 25 min, 4 °C). […] Solution was homogenized, first by passing through a 1 ml micropipette 10 times, then passing through a 20-gauge needle 10 times. To initiate the reaction, sodium ascorbate (50 mM) was added to the mixture and mixed by pipetting (2 ml final volume). Reactions were incubated with mild shaking (500 rpm) for 30 min at 25 °C.
For conditions without drug, peptide or nanobody, an equivalent volume of assay buffer was added. Reactions were equilibrated for 5 min prior to reading. […] Time-resolved fluorescence decay data were fit to the equation: Decay=α1e^−t/τ^1+α2e^−t/τ^2+α3e^−t/τ^3
Amplitude-weighted average lifetimes (τavg) were calculated from the three-exponential decay equation: τavg=(α1τ1+α2τ2+α3τ3)/(α1+α2+α3)
Each condition was performed in technical duplicate or triplicate, depending on sensor yield.

| Molecule | Specific Peptide Signal, Gs (Average) (PTH1R–Gs peptide) | Specific Peptide Signal, Gq (Average) (PTH1R–Gq peptide) | effect on agonist-induced FRET of β2AR–G peptide sensor ([1]; wild-type β2AR–Gs peptide FRET sensor) | effect on agonist-induced FRET of β2AR–G peptide sensor ([1]; β2AR(∆ICL3), Gs and Gq peptide sensors) | effect on FRET efficiency of the ICL3 FRET sensor treated with isoproterenol [2] |
| --- | --- | --- | --- | --- | --- |
| ADA1A (protein, UniProt P35348 1-466, looked up) Alpha-1A adrenergic receptor: MVFLSGNASDSSNCTQPPAPVNISKAILLGVILGGLILFGVLGNILVILSVACHRHLHSVTHYYIVNLAVADLLLTSTVLPFSAIFEVLGYWAFGRVFCNIWAAVDVLCCTASIMGLCIISIDRYIGVSYPLRYPTIVTQRRGLMALLCVWALSLVISIGPLFGWRQPAPEDETICQINEEPGYVLFSALGSFYLPLAIILVMYCRVYVVAKRESRGLKSGLKTDKSDSEQVTLRIHRKNAPAGGSGMASAKTKTHFSVRLLKFSREKKAAKTLGIVVGCFVLCWLPFFLVMPIGSFFPDFKPSETVFKIVFWLGYLNSCINPIIYPCSSQEFKKAFQNVLRIQCLCRKQSSKHALGYTLHPPSQAVEGQHKDMVRIPVGSRETFYRISKTDGVCEWKFFSSMPRGSARITVSKDQSSCTTARVRSKSFLQVCCCVGPSTPSLDKNHQVPTIKVHTISLSENGEEV | 0.59 | 0.14 | – | – | – |
| DRD3 (protein, UniProt P35462 1-400, looked up) D(3) dopamine receptor: MASLSQLSGHLNYTCGAENSTGASQARPHAYYALSYCALILAIVFGNGLVCMAVLKERALQTTTNYLVVSLAVADLLVATLVMPWVVYLEVTGGVWNFSRICCDVFVTLDVMMCTASILNLCAISIDRYTAVVMPVHYQHGTGQSSCRRVALMITAVWVLAFAVSCPLLFGFNTTGDPTVCSISNPDFVIYSSVVSFYLPFGVTVLVYARIYVVLKQRRRKRILTRQNSQCNSVRPGFPQQTLSPDPAHLELKRYYSICQDTALGGPGFQERGGELKREEKTRNSLSPTIAPKLSLEVRKLSNGRLSTSLKLGPLQPRGVPLREKKATQMVAIVLGAFIVCWLPFFLTHVLNTHCQTCHVSPELYSATTWLGYVNSALNPVIYTTFNIEFRKAFLKILSC | 0.72 | 0.08 | – | – | – |
| CNR1 (protein, UniProt P21554 1-472, looked up) Cannabinoid receptor 1: MKSILDGLADTTFRTITTDLLYVGSNDIQYEDIKGDMASKLGYFPQKFPLTSFRGSPFQEKMTAGDNPQLVPADQVNITEFYNKSLSSFKENEENIQCGENFMDIECFMVLNPSQQLAIAVLSLTLGTFTVLENLLVLCVILHSRSLRCRPSYHFIGSLAVADLLGSVIFVYSFIDFHVFHRKDSRNVFLFKLGGVTASFTASVGSLFLTAIDRYISIHRPLAYKRIVTRPKAVVAFCLMWTIAIVIAVLPLLGWNCEKLQSVCSDIFPHIDETYLMFWIGVTSVLLLFIVYAYMYILWKAHSHAVRMIQRGTQKSIIIHTSEDGKVQVTRPDQARMDIRLAKTLVLILVVLIICWGPLLAIMVYDVFGKMNKLIKTVFAFCSMLCLLNSTVNPIIYALRSKDLRHAFRSMFPSCEGTAQPLDNSMGDSDCLHKHANNAASVHRAAESCIKSTVKIAKVTMSVSTDTSAEAL | 0.53 | 0.10 | – | – | – |
| 5HT2C (protein, UniProt P28335 33-458, looked up) 5-hydroxytryptamine receptor …: IVTDIFNTSDGGRFKFPDGVQNWPALSIVIIIIMTIGGNILVIMAVSMEKKLHNATNYFLMSLAIADMLVGLLVMPLSLLAILYDYVWPLPRYLCPVWISLDVLFSTASIMHLCAISLDRYVAIRNPIEHSRFNSRTKAIMKIAIVWAISIGVSVPIPVIGLRDEEKVFVNNTTCVLNDPNFVLIGSFVAFFIPLTIMVITYCLTIYVLRRQALMLLHGHTEEPPGLSLDFLKCCKRNTAEEENSANPNQDQNARRRKKKERRPRGTMQAINNERKASKVLGIVFFVFLIMWCPFFITNILSVLCEKSCNQKLMEKLLNVFVWIGYVCSGINPLVYTLFNKIYRRAFSNYLRCNYKVEKKPPVRQIPRVAATALSGRELNVNIYRHTNEPVIEKASDNEPGIEMQVENLELPVNPSSVVSERISSV | 0.48 | -0.00493 | – | – | – |
| Nb6B9: nanobody that binds the receptor’s cytosolic cavity in the active state (antibody, V domains shown) VH: QVQLQESGGGLVQAGGSLRLSCAASGSIFALNIMGWYRQAPGKQRELVAAIHSGGTTNYANSVKGRFTISRDNAANTVYLQMNSLKPEDTAVYYCNVKDFGAIIYDYDYWGQGTQVTVSS | – | – | significantly quenched FRET | quenched the interactions of both the Gs and Gq peptides with the receptor | quenched |
| CCK2 (protein, UniProt P32239 1-447, looked up) Gastrin/cholecystokinin type …: MELLKLNRSVQGTGPGPGASLCRPGAPLLNSSSVGNLSCEPPRIRGAGTRELELAIRITLYAVIFLMSVGGNMLIIVVLGLSRRLRTVTNAFLLSLAVSDLLLAVACMPFTLLPNLMGTFIFGTVICKAVSYLMGVSVSVSTLSLVAIALERYSAICRPLQARVWQTRSHAARVIVATWLLSGLLMVPYPVYTVVQPVGPRVLQCVHRWPSARVRQTWSVLLLLLLFFIPGVVMAVAYGLISRELYLGLRFDGDSDSDSQSRVRNQGGLPGAVHQNGRCRPETGAVGEDSDGCYVQLPRSRPALELTALTAPGPGSGSRPTQAKLLAKKRVVRMLLVIVVLFFLCWLPVYSANTWRAFDGPGAHRALSGAPISFIHLLSYASACVNPLVYCFMHRRFRQACLETCARCCPRPPRARPRALPDEDPPTPSIASLSRLSYTTISTLGPG | 0.42 | 0.12 | – | – | – |
